Columns and labels:
SHP2-C SH2 = test: SH2 binding enrichment of the phosphorylated peptide, bacterial display (enrichment ratio); higher = better substrate or ligand; peptides without Tyr show the background
c-Src SH2 = test: as above
Grb2 SH2 = Grb2 SH2 (UniProt P62993); test: as above
c-Abl (mouse) = test: phosphorylation enrichment, bacterial display (enrichment ratio); higher = better substrate or ligand; peptides without Tyr show the background
Jak2 = Jak2 (UniProt O60674); test: as above
EPHB1 = EPHB1 (UniProt P54762); test: as above
EPHB2 = EPHB2 (UniProt P29323); test: as above
Fer (mouse) = test: as above
Hck = Hck (UniProt P08631); test: as above
Fyn = Fyn (UniProt P06241); test: as above
AncSZ = test: as above
MERTK = MERTK (UniProt Q12866); test: as above
FGFR1 = FGFR1 (UniProt P11362); test: as above
Fes = Fes (UniProt P07332); test: as above
c-Src = test: as above
FGFR3 = FGFR3 (UniProt P22607); test: as above
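Throughout, for SH2 binding enrichment of the phosphorylated peptide, bacterial display: peptide library displayed on the E. coli surface as eCPX fusions, selected cells deep-sequenced, score is each peptide's frequency after selection divided by its frequency in the input.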
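Throughout, for phosphorylation enrichment, bacterial display: 11-residue human phosphosite peptides and single-mutation variants displayed on the E. coli surface, counted by deep sequencing, each peptide's frequency after selection divided by its frequency in the unselected input library; frequency after pTyr selection over input frequency; kinase dosed for 20-30% of maximal phosphorylation in three min.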

Chain of Hck (P08631 whole entry, looked up): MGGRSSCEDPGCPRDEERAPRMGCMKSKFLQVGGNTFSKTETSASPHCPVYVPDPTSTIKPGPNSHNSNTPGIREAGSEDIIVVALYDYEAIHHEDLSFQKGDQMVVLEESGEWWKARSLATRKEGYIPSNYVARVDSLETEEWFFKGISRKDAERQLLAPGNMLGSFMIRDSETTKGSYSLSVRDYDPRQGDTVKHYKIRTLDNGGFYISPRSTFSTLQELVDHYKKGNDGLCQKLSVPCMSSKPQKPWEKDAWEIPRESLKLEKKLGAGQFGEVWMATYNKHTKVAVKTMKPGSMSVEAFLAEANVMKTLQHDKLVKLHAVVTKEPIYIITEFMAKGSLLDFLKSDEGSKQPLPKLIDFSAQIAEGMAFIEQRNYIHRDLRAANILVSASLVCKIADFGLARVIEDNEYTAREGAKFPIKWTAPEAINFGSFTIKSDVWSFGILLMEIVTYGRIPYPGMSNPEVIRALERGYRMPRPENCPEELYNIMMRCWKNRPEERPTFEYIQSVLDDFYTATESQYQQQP
Chain of FGFR3 (P22607 whole entry, looked up, the tested form may be a part): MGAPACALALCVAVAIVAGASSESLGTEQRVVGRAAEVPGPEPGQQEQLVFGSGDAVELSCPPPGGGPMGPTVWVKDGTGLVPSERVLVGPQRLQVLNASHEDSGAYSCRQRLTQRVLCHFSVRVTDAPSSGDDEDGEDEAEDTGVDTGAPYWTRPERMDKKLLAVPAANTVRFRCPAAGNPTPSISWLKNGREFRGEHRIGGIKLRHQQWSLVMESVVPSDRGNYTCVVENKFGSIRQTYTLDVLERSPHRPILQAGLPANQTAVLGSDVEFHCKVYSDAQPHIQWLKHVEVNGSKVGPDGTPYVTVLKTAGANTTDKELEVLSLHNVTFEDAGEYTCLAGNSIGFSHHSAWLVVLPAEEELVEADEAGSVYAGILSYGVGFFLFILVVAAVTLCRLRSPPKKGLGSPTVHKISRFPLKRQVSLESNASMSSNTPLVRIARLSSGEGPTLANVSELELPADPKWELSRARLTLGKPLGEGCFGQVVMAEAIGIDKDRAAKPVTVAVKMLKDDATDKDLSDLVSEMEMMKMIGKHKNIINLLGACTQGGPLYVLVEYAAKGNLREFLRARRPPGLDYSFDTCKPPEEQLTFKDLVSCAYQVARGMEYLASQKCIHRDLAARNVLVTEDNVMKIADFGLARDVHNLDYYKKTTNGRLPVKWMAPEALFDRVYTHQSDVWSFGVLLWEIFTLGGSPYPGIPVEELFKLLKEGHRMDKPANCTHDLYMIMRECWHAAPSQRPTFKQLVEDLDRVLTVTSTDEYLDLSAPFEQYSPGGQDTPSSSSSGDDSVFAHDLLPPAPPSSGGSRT
Chain of Fyn (P06241 whole entry, looked up): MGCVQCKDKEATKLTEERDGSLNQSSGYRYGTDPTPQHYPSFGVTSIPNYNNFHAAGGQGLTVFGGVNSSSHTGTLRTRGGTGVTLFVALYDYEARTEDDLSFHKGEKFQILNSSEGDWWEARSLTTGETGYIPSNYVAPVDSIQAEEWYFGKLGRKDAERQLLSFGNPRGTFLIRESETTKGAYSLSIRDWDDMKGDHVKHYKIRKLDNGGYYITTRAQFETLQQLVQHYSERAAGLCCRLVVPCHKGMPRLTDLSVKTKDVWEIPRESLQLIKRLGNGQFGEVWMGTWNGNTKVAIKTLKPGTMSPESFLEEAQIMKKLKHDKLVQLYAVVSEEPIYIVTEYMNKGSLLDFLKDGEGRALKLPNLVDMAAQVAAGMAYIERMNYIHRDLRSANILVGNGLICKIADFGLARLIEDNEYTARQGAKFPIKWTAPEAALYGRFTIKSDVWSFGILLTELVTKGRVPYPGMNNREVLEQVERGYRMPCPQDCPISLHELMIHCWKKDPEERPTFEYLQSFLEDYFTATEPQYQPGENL
Chain of EPHB2 (P29323 whole entry, looked up): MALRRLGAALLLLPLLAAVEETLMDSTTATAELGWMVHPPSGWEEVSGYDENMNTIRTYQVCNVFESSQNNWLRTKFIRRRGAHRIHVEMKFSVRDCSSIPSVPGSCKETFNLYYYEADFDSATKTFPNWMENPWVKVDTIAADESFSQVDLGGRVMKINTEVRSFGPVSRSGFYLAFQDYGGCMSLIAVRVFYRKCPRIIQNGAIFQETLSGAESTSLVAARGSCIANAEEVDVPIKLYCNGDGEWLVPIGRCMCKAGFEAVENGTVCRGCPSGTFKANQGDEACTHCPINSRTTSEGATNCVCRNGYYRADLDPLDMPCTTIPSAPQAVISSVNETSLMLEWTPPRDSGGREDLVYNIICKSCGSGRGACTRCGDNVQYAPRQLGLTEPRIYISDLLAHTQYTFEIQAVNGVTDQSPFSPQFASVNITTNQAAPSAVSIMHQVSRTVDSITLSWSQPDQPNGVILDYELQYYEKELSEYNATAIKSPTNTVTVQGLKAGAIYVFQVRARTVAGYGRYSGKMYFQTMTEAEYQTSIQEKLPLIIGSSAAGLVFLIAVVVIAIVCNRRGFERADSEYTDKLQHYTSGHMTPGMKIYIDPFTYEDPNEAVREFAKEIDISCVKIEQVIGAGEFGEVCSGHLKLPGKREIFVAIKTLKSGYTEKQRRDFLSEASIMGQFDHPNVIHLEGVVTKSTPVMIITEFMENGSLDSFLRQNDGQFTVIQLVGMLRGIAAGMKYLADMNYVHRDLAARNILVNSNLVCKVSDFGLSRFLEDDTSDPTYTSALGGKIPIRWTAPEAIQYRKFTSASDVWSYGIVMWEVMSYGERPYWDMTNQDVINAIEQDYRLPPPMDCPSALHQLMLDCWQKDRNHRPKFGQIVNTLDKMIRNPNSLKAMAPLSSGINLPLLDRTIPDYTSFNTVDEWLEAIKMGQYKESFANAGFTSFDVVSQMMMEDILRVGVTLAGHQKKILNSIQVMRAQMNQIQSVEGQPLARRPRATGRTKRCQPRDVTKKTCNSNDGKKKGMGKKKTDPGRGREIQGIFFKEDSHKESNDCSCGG
Chain of Fes (P07332 whole entry, looked up): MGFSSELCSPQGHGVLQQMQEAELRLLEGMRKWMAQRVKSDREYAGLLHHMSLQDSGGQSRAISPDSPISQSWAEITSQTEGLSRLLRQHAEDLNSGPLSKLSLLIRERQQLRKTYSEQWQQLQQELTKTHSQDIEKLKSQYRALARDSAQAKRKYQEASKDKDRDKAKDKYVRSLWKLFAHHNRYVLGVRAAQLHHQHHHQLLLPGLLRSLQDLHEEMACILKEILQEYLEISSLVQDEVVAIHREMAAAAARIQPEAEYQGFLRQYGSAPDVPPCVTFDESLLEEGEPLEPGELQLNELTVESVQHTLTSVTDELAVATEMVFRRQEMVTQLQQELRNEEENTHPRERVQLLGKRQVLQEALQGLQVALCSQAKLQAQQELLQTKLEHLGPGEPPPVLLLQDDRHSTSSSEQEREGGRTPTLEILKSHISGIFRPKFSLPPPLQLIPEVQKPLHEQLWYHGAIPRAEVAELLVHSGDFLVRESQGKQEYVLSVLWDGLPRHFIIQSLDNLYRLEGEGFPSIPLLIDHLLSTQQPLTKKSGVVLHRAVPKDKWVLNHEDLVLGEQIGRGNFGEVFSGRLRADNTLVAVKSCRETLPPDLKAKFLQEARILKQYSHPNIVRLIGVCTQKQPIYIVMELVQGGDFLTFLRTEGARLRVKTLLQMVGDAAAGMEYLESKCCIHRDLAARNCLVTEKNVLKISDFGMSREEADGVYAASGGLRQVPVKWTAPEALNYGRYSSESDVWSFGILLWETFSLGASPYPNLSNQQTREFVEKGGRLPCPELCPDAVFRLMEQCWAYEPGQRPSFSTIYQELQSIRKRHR
Chain of EPHB1 (P54762 whole entry, looked up): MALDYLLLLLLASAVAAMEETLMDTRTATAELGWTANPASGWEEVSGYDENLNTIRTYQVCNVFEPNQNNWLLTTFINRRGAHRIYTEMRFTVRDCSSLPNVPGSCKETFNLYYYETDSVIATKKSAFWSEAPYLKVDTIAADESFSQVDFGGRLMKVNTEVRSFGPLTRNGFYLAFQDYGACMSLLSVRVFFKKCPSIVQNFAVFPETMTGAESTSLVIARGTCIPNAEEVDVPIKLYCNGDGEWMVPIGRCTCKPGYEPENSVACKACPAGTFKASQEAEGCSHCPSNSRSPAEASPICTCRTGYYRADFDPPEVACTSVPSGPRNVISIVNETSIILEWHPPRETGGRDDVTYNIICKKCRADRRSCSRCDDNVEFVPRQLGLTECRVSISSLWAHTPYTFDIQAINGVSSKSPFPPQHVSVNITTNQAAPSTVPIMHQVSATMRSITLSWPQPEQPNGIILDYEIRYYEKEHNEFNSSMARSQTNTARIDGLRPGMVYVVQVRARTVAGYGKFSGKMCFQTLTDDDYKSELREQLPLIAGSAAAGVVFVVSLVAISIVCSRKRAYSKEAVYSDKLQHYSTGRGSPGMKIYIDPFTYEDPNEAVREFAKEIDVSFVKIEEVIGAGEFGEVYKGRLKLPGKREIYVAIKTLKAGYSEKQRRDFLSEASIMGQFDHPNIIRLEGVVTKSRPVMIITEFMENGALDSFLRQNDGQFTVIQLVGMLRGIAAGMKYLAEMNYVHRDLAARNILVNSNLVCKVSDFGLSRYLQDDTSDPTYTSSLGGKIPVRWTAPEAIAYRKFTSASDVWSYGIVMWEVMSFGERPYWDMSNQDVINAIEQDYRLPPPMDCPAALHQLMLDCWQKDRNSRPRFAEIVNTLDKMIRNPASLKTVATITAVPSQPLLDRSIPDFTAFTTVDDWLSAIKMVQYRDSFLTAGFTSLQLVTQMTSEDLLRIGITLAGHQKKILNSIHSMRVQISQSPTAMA

SH2 binding enrichment (SHP2-C SH2) | SH2 binding enrichment (c-Src SH2) | SH2 binding enrichment (Grb2 SH2) | Sequence | phosphorylation enrichment (c-Abl (mouse)) | phosphorylation enrichment (Jak2) | phosphorylation enrichment (EPHB1) | phosphorylation enrichment (EPHB2) | phosphorylation enrichment (Fer (mouse)) | phosphorylation enrichment (Hck) | phosphorylation enrichment (Fyn) | phosphorylation enrichment (AncSZ) | phosphorylation enrichment (MERTK) | phosphorylation enrichment (FGFR1) | phosphorylation enrichment (Fes) | phosphorylation enrichment (c-Src) | phosphorylation enrichment (FGFR3)
2.29 | 0.726 | 0.979 | IYLGAYDRFLP [SLC22A5_Y486_V481I] | 2.56 | 1.16 | 2.18 | 4.21 | 2.42 | 6.82 | 5 | 1.72 | 6.6 | 0.918 | 1.18 | 5.43 | 0.94
0.719 | 0.488 | 0.746 | KAWTIYRPEDS [ZBP1_Y165] | 0.757 | 1.17 | 0.461 | 0.512 | 0.449 | 0.482 | 0.494 | 1.41 | 0.478 | 0.539 | 1.15 | 0.566 | 0.643
0.553 | 0.444 | 0.812 | KDFTIHNPNLL [VANGL1_Y290_Y290H] | 0.574 | 0.654 | 0.516 | 0.366 | 0.353 | 0.392 | 0.369 | 0.698 | 0.453 | 0.424 | 0.829 | 0.439 | 0.561
0.537 | 0.511 | 0.703 | KDFTIYNPNLL [VANGL1_Y290] | 0.71 | 0.815 | 0.419 | 0.42 | 0.599 | 1.58 | 0.787 | 0.722 | 0.478 | 0.434 | 0.835 | 1.2 | 0.518
0.685 | 0.47 | 0.823 | KDHLDYKFQPR [SOX9_Y172_P170L_YF] | 0.642 | 0.922 | 0.475 | 0.478 | 0.392 | 0.352 | 0.431 | 0.73 | 0.409 | 0.498 | 1.02 | 0.504 | 0.531
0.689 | 0.586 | 1.19 | KDHPDYEYQPR [SOX9_Y172_K173E] | 0.665 | 0.811 | 2.21 | 0.958 | 0.465 | 0.588 | 0.667 | 2.59 | 0.432 | 0.844 | 0.961 | 0.474 | 0.771
0.783 | 0.553 | 1 | KDHPDYKFPPR [SOX10_Y171_Q174P_YF] | 0.52 | 0.564 | 0.387 | 0.444 | 0.376 | 0.382 | 0.415 | 0.883 | 0.393 | 0.656 | 0.685 | 0.434 | 0.762
0.568 | 0.461 | 0.981 | KEINDYVEKGT [SERPINA1_Y184_Q180E] | 0.621 | 0.75 | 0.513 | 0.56 | 0.492 | 0.515 | 0.514 | 1.21 | 0.439 | 0.558 | 0.954 | 0.517 | 0.632

More lines, now with the values behind:

Sequence | SH2 binding enrichment (SHP2-C SH2) | SH2 binding enrichment (c-Src SH2) | SH2 binding enrichment (Grb2 SH2) | phosphorylation enrichment (c-Abl (mouse)) | phosphorylation enrichment (Jak2) | phosphorylation enrichment (EPHB1) | phosphorylation enrichment (EPHB2) | phosphorylation enrichment (Fer (mouse)) | phosphorylation enrichment (Hck) | phosphorylation enrichment (Fyn) | phosphorylation enrichment (AncSZ) | phosphorylation enrichment (MERTK) | phosphorylation enrichment (FGFR1) | phosphorylation enrichment (Fes) | phosphorylation enrichment (c-Src) | phosphorylation enrichment (FGFR3)
KAIMTYVSSFY [ACTN4_Y260] | 0.987 | 0.564 | 0.86 | 0.755 | 1.04 | 0.644 | 0.666 | 0.505 | 0.554 | 0.536 | 0.976 | 0.424 | 0.489 | 1.05 | 0.612 | 0.719
KANEYYPVVLI [ADAMTS18_Y765] | 0.625 | 0.404 | 0.683 | 1.6 | 2.79 | 3.64 | 3.11 | 2.12 | 0.693 | 0.572 | 1.97 | 0.541 | 11.2 | 0.813 | 0.655 | 9.02
KATKGYLDDPT [G6PD_Y322_E317K] | 0.84 | 0.489 | 0.888 | 0.451 | 0.755 | 0.431 | 0.603 | 0.329 | 0.417 | 0.405 | 0.73 | 0.443 | 0.529 | 0.639 | 0.395 | 0.484
KDAGDYKCKAK [LRIT3_Y326] | 0.767 | 0.83 | 1.4 | 0.654 | 0.579 | 0.408 | 0.312 | 0.312 | 0.55 | 0.386 | 0.542 | 0.332 | 0.448 | 0.618 | 0.384 | 0.517
KDGIGYISAAE [CALM2_Y100_N98I] | 0.686 | 0.598 | 1.07 | 0.557 | 0.589 | 0.393 | 0.424 | 0.464 | 0.454 | 0.466 | 0.635 | 0.476 | 0.476 | 0.763 | 0.427 | 0.517
KDIENYIQDGK [RAD50_Y964] | 0.687 | 0.526 | 0.979 | 0.639 | 0.82 | 0.504 | 0.515 | 0.416 | 0.45 | 0.433 | 0.923 | 0.464 | 0.543 | 0.965 | 0.461 | 0.616
KDLPNYNWNSF [KISS1_Y112] | 0.441 | 0.459 | 0.769 | 0.639 | 0.767 | 0.505 | 0.63 | 0.604 | 0.416 | 0.446 | 0.904 | 0.491 | 0.432 | 0.855 | 0.507 | 0.521
KELALYDENWF [RPS19_Y48_P47L] | 0.611 | 0.456 | 0.834 | 1.06 | 1.44 | 8.19 | 11.5 | 7.67 | 1.41 | 1.02 | 1.5 | 7.19 | 0.729 | 1.43 | 1.39 | 0.947
